For six proteins, Km and kcat results are on record in paper PMC5405513, “Identification and biochemical characterization of the fructokinase gene family in Arabidopsis thaliana” (BMC Plant Biology, 2017).

Common to all, as to assay: coupled pyruvate kinase / lactate dehydrogenase assay, NADH oxidation at A340
Type in all cases: biochemical, Arabidopsis thaliana
Conditions in all cases: 50 mM Tris pH 7.5, 100 mM KCl, 10 mM MgCl2, 1 mM fructose, 10 mM phosphate, Michaelis-Menten fit

Substrate in series [1]: Nc1ncnc2c1ncn2[C@@H]1O[C@H](COP(=O)(O)OP(=O)(O)OP(=O)(O)O)[C@@H](O)[C@H]1O
The text has this:
coupled pyruvate kinase / lactate dehydrogenase assay, NADH oxidation at A340 on FRK2

Substrate in series [2]: Nc1ncnc2c1ncn2[C@@H]1O[C@H](COP(=O)(O)OP(=O)(O)OP(=O)(O)O)[C@@H](O)[C@H]1O
The source says:
coupled pyruvate kinase / lactate dehydrogenase assay, NADH oxidation at A340 on FRK4
The source holds these as a separate data set.

Substrate in series [3]: Nc1ncnc2c1ncn2[C@@H]1O[C@H](COP(=O)(O)OP(=O)(O)OP(=O)(O)O)[C@@H](O)[C@H]1O
The text has this: coupled pyruvate kinase / lactate dehydrogenase assay, NADH oxidation at A340 on FRK3
This is another data set of the same source.

Substrate in series [4]: Nc1ncnc2c1ncn2[C@@H]1O[C@H](COP(=O)(O)OP(=O)(O)OP(=O)(O)O)[C@@H](O)[C@H]1O
The source says:
coupled pyruvate kinase / lactate dehydrogenase assay, NADH oxidation at A340 on FRK6
This is another data set of the same source.

Substrate in series [5]: Nc1ncnc2c1ncn2[C@@H]1O[C@H](COP(=O)(O)OP(=O)(O)OP(=O)(O)O)[C@@H](O)[C@H]1O
The source says: coupled pyruvate kinase / lactate dehydrogenase assay, NADH oxidation at A340 on FRK5
The source holds these as a separate data set.

Substrate in series [6]: Nc1ncnc2c1ncn2[C@@H]1O[C@H](COP(=O)(O)OP(=O)(O)OP(=O)(O)O)[C@@H](O)[C@H]1O
The source says:
coupled pyruvate kinase / lactate dehydrogenase assay, NADH oxidation at A340 on FRK1
This is another data set of the same source.

B1: FRK2 (Arabidopsis thaliana) (protein)
chain: MASNGDKGLIVSFGEMLIDFVPTESGVSLAEAPGFLKAPGGAPANVAIAVSRLGGRSAFVGKLGDDEFGHMLAGILRKNGVDDQGINFDTGARTALAFVTLRADGDREFMFYRNPSADMLLRPDELNLDLIRSAKVFHYGSISLIVEPCRSAHLKAMEVAKEAGALLSYDPNLREPLWPSKEEAKTQIMSIWDKAEIIKVSDVELEFLTGSNKIDDETALTLWHPNLKLLLVTLGEKGCRYYTKTFKGAVDPFHVNAVDTTGAGDSFVGALLNQIVDDRSVLEDEERLRKVLRFANACGAITTTKKGAIPALPSDAEVRSFLEKK
For B1, in series [1], the Km (usually the substrate concentration at which the rate is half of its maximum) is 85 ± 8.7 µM; the kcat (in general, the number of substrate molecules converted per active site and unit of time at saturation) was determined as 10.3 s⁻¹.

B2: FRK4 (Arabidopsis thaliana) (protein)
chain: MANTPLIVSFGEMLIDFVPDTSGVSLAESTGFLKAPGGAPANVACAITKLGGKSAFIGKFGDDEFGHMLVNILKKNGVNSEGVCFDTNARTALAFVTLKKDGEREFMFYRNPSADMLLKESELNKDLIKKAKIFHYGSISLISEPCRTAHMAAMKTAKDAGVLLSYDPNVRLPLWPSTEAAIEGIKSIWNEADIIKVSDDEVTFLTRGDAEKDDVVLSLMHDKLKLLIVTDGEKGCRYYTKKFKGRVPGYAVKAVDTTGAGDSFVGAFLVSLGKDGSILDDEGKLKEALAFANACGAVCTTQKGAIPALPTPADAQKLMKSKSK
As to B2, in series [2], the Km came out at 95 ± 7.9 µM and the catalytic constant (kcat) is 11.1 s⁻¹.

B3: FRK3 (Arabidopsis thaliana) (protein)
chain: SNLKGRALSSDGSTQESPYVVCFGEMLIDFVPTTSGLSLADAPAFKKAPGGAPANVAVGIARLGGSSAFIGKVGEDEFGYMLANILKDNNVNNDGMRFDPGARTALAFVTLTNEGEREFMFYRNPSADMLLEESELDFDLIKKAKIFHYGSISLITEPCKSAHISAAKAAKEAGVILSYDPNLRLPLWPSADNAREEILSIWETADIIKISEEEIVFLTKGEDPYDDNVVRKLFHPKLKLLLVTEGPEGCRYYTKDFSGRVHGLKVDVVDTTGAGDAFVAGILSQLANDLSLLQDEERLREALMFANACGALTVKVRGAIPALPTKEAVHEALLKAVV
As to B3, in series [3], the Michaelis-Menten constant (Km) was found to be 52 ± 9.8 µM and the kcat turned out to be 14.3 s⁻¹.

B4: FRK6 (Arabidopsis thaliana) (protein)
chain: MTSSNGDNKGLVVSFGEMLIDFVPTESGVSLSESSGFLKAPGGAPANVAIAVSRLGGRAAFVGKLGDDEFGHMLAGILRKNDVDDQGINFDKGARTALAFVTLRSDGEREFMFYRNPSADMLLRPDELNLELIRSAKVFHYGSISLITEPCRSAHMKAMEVAKEAGALLSYDPNLREPLWPSPEEARKQIMSIWDKADIIKVSDVELEFLTGNKTIDDETAMSLWHPNLKLLLVTLGENGCRYYTKDFHGSVETFHVDAVDTTGAGDSFVGALLNQIVDDQSVLEEEERLRKVLRFANACGAITTTKKGAIPALPTDCEALSFLKIQVE
B4: in series [4], the Michaelis constant (Km) was 160 ± 21 µM and the catalytic constant (kcat) was determined as 12.8 s⁻¹.

B5: FRK5 (Arabidopsis thaliana) (protein)
chain: MASSTGEKGLIVSFGEMLIDFVPTVSGVSLSESPGFLKAPGGAPANVAIAVSRLGGRAAFVGKLGDDDFGHMLAGILRKNGVDDQGINFDEGARTALAFVTLRSDGEREFMFYRNPSADMLLRPDELNLELIRSAKVFHYGSISLITEPCRSAHMKAMEVAKEAGALLSYDPNLREPLWPSPEEARTQIMSIWDKADIIKVSDVELEFLTENKTMDDKTAMSLWHPNLKLLLVTLGEKGCTYFTKKFHGSVETFHVDAVDTTGAGDSFVGALLQQIVDDQSVLEDEARLRKVLRFANACGAITTTKKGAIPALPTDIEALSFLKDQKKRQTNLKFSKWCCTASPC
As to B5, in series [5], the Km stood at 180 ± 57 µM and the turnover number (kcat) turned out to be 4.8 s⁻¹.

B6: FRK1 (Arabidopsis thaliana) (protein)
chain: MGEDAISGNLKNLTIDTRDSETLVVCFGEMLIDFVPTVGGVSLAEAPAFKKAPGGAPANVAVGVSRLGGSSAFIGKVGDDEFGRMLADILRLNNVDNSGMRFDHNARTALAFVTLRGDGEREFLFFRHPSADMLLLESELDKNLIQKAKIFHYGSISLIEEPCRSTQLVAMKIAKAAGSLLSYDPNLRLPLWPSEEAARKEIMSIWNLADVIKISEDEITFLTGGDDPYDDDVVLQKLFHPNLKLLVVSEGPNGCRYYTQEFKGRVGGVKVKPVDTTGAGDAFVSGLLNSLASDLTLLKDEKKLREALLFANACGAITVTERGAIPAMPSMDAVQDLLSSTRS
On to B6, for which, in series [6], the Km was found to be 52 ± 7.8 µM and the kcat is 14.2 s⁻¹.
